Source: article PMC5834214 (PLoS Pathogens, 2018)

Tests used:
LCMV NP (Strep-NP) = LCMV NP (Strep-NP) (Lymphocytic choriomeningitis virus, UniProt P09992)
eGFP = eGFP (Aequorea victoria, UniProt P42212, F64L/H231L/S65T)

Chain of LCMV NP (Strep-NP) (P09992 whole entry): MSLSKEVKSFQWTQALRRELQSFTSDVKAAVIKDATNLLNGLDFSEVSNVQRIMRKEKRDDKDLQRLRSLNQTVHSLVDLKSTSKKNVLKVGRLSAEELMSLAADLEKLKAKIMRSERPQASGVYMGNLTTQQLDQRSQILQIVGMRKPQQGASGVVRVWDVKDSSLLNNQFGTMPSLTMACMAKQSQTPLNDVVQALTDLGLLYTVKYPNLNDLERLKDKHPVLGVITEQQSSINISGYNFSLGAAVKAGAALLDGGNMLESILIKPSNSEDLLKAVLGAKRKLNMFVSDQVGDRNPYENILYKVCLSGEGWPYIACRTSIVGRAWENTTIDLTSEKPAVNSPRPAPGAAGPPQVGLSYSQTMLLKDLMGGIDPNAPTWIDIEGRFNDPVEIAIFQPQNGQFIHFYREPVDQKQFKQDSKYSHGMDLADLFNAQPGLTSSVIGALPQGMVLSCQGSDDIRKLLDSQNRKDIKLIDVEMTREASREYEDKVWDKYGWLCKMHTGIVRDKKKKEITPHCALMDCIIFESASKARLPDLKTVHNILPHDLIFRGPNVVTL

B1: HNRNPC (protein, UniProt P07910 2-306, looked up)
Heterogeneous nuclear …: ASNVTNKTDPRSMNSRVFIGNLNTLVVKKSDVEAIFSKYGKIVGCSVHKGFAFVQYVNERNARAAVAGEDGRMIAGQVLDINLAAEPKVNRGKAGVKRSAAEMYGSVTEHPSPSPLLSSSFDLDYDFQRDYYDRMYSYPARVPPPPPIARAVVPSKRQRVSGNTSRRGKSGFNSKSGQRGSSKSGKLKGDDLQAIKKELTQIKQKVDSLLENLEKIEKEQSKQAVEMKNDKSEEEQSSSSVKKDETNVKMESEGGADDSAEEGDLLDDDDNEDRGDDQLELIKDDEKEAEEGEDDRDSANGEDDS
LCMV NP (Strep-NP)
  Spectral count NP Average: 4.5
  Spectral count NP Exp. 1: 4
  Spectral count NP Exp. 2: 5
eGFP
  Spectral count eGFP Average: 0
  Spectral count eGFP Exp. 1: 0
  Spectral count eGFP Exp. 2: 0
